Experimental data as given in patent EP4703372A1.
Read-outs that look alike come from different tables or passages of the source.

Key:
[1] = target: Humira, which included human κ light chain subgroup 1 (Vκ1) (manufactured by Eisai Co., Ltd.); test: ratio of ELISA A450 on Humira (Vκ1) to A450 on Human PCSK9 antibody (Vκ4) (repeats Table 17)
[2] = target: Human PDGFR alpha antibody, which included human κ light chain subgroup 3 (Vκ3) (manufactured by R&D Systems, Inc.); test: ELISA, antibody immobilised (10 ug/mL), binder at 50 ug/mL, anti-6-His detection, blank subtracted
[3] = target: Human PCSK9 antibody, which included human κ light chain subgroup 4 (Vκ4) (manufactured by R&D Systems, Inc.); test: as above
[4] = target: Humira, which included human κ light chain subgroup 1 (Vκ1) (manufactured by Eisai Co., Ltd.); test: as above
[5] = target: Humira, which included human κ light chain subgroup 1 (Vκ1) (manufactured by Eisai Co., Ltd.); test: ratio of ELISA A450 on Humira (Vκ1) to A450 on Human PDGFR alpha antibody (Vκ3) (repeats Table 17)
[6] = target: Human PDGFR alpha antibody, which included human κ light chain subgroup 3 (Vκ3) (manufactured by R&D Systems, Inc.); test: ELISA, antibody immobilised, binder at 50 ug/mL, anti-6-His detection (repeats Table 17)
[7] = target: Human PCSK9 antibody, which included human κ light chain subgroup 4 (Vκ4) (manufactured by R&D Systems, Inc.); test: as above
[8] = target: Humira, which included human κ light chain subgroup 1 (Vκ1) (manufactured by Eisai Co., Ltd.); test: as above
[9] = target: Humira, which included human κ light chain subgroup 1 (Vκ1) (manufactured by Eisai Co., Ltd.); test: ratio of ELISA A450 on Humira (Vκ1) to A450 on Human PCSK9 antibody (Vκ4)
[10] = target: Humira, which included human κ light chain subgroup 1 (Vκ1) (manufactured by Eisai Co., Ltd.); test: ratio of ELISA A450 on Humira (Vκ1) to A450 on Human PDGFR alpha antibody (Vκ3)
[11] = target: Herceptin, which included human κ light chain subgroup 1 (Vκ1) (manufactured by Chugai Pharmaceutical Co., Ltd.); test: ELISA, antibody immobilised (10 ug/mL), binder at 50 ug/mL, anti-6-His detection, blank subtracted
[12] = target: Human CTLA4 antibody, which included human κ light chain subgroup 3 (Vκ3) (manufactured by R&D Systems, Inc.); test: as above
[13] = target: Herceptin, which included human κ light chain subgroup 1 (Vκ1) (manufactured by Chugai Pharmaceutical Co., Ltd.); test: as above; remark: listed apart in the source
[14] = target: Human CTLA4 antibody, which included human κ light chain subgroup 3 (Vκ3) (manufactured by R&D Systems, Inc.); test: as above; remark: listed apart in the source

For “C3 immunoglobulin-binding domain of Protein L derived from Finegoldia magna (FpL_C3), wild-type”, the Absorbance ratio (Vκ1/Vκ4) [1] was 0.9, the absorbance at 450 nm (absorbance at 450 nm) [2] was 0.71 and the absorbance at 450 nm (absorbance at 450 nm) [3] was 0.91. The absorbance at 450 nm (absorbance at 450 nm) [4] was 0.82, the Absorbance ratio (Vκ1/Vκ3) [5] was 1.2 and the absorbance at 450 nm (absorbance at 450 nm) [6] was 0.71. It also gave an absorbance at 450 nm (absorbance at 450 nm) [7] of 0.91, an absorbance at 450 nm (absorbance at 450 nm) [8] of 0.82 and an Absorbance ratio (Vκ1/Vκ4) [9] of 0.9. The Absorbance ratio (Vκ1/Vκ3) [10] was 1.2.

“FpL_C3KR (all lysine residues of FpL_C3 substituted with arginine) (designed binder)” was tested, and the absorbance at 450 nm (absorbance at 450 nm) [11] was 0.86, the absorbance at 450 nm (absorbance at 450 nm) [12] was 0.07 and the absorbance at 450 nm (absorbance at 450 nm) [2] was 0.21. It also gave an absorbance at 450 nm (absorbance at 450 nm) [13] of 0.92, an absorbance at 450 nm (absorbance at 450 nm) [3] of 0.77 and an absorbance at 450 nm (absorbance at 450 nm) [14] of 0.32.

In the case of “FpL_C3KR_K38E (K(R)38E introduced into FpL_C3KR) (designed binder)”, the absorbance at 450 nm (absorbance at 450 nm) [12] is reported as 0.98.
